B1: α-subunit of the archaeal (Thermoplasma acidophilum) 20S proteasome (natural protein)
chain: MQQGQMAYDRAITVFSPDGRLFQVEYAREAVKKGSTALGMKFANGVLLISDKKVRSRLIEQNSIEKIQLIDDYVAAVTSGLVADARVLVDFARISAQQEKVTYGSLVNIENLVKRVADQMQQYTQYGGVRPYGVSLIFAGIDQIGPRLFDCDPAGTINEYKATAIGSGKDAVVSFLEREYKENLPEKEAVTLGIKALKSSLEEGEELKAPEIASITVGNKYRIYDQEEVKKFL

Assays:
[1] = target: the molecule itself; experiment: native MS; SID-IM-MS on a Synapt G2 with SID device: two most intense charge states isolated, surface-induced dissociation at 150 V, subcomplexes separated by ion mobility; charge reduced with TEAA (0.1/0.9 TEAA/ammonium acetate, v/v)
[2] = target: α7 ring of the yeast (Saccharomyces cerevisiae) 20S proteasome (yeast (Saccharomyces cerevisiae), UniProt P40302 1-234; P23639 2-250; P21242 1-288; P23638 2-258; P32379 1-260; P21243 …, N-terminal acetylation | N-terminal acetylation | N-terminal acetylation | N-terminal acetylation | N-terminal acetylation | N-terminal acetylation); experiment: native MS; intact 20S proteasomes, native IM-MS on a modified Synapt G1; 150 mM ammonium acetate, pH 7, ~3 uM; conditions: both partners purified
[3] = target: PSMA6 subunit of the human 20S proteasome (human (HEK293 cells), UniProt P60900 2-246, N-terminal acetylation); experiment: native MS; SID-IM-MS on a Synapt G2 with SID device: two most intense charge states isolated, surface-induced dissociation at 150 V, subcomplexes separated by ion mobility; charge reduced with TEAA (0.1/0.9 TEAA/ammonium acetate, v/v); conditions: both partners purified
[4] = target: PSMA6 subunit of the rat 20S proteasome (rat (Rattus norvegicus), UniProt P60901 2-246, N-terminal acetylation); experiment: as above; conditions: both partners purified
[5] = target: B1; experiment: as above; conditions: both partners purified

Chain of PSMA6 subunit of the human 20S proteasome (P60900 2-246): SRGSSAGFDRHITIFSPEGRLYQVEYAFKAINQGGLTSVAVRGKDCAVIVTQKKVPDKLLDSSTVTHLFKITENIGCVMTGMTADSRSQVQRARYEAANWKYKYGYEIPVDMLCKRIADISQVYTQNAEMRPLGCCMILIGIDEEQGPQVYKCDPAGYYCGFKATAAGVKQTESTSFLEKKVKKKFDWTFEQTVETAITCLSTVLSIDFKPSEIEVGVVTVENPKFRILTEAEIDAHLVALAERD
Chain of PSMA6 subunit of the rat 20S proteasome (P60901 2-246): as the sequence (P60900 2-246) above

Binder	binding result [1]	further results
β7 ring of the yeast (Saccharomyces cerevisiae) 20S proteasome (complex, N-terminal acetylation) chain 1: QFNPYGDNGGTILGIAGEDFAVLAGDTRNITDYSINSRYEPKVFDCGDNIVMSANGFAADGDALVKRFKNSVKWYHFDHNDKKLSINSAARNIQHLLYGKRFFPYYVHTIIAGLDEDGKGAVYSFDPVGSYEREQCRAGGAAASLIMPFLDNQVNFKNQYEPGTNGKVKKPLKYLSVEEVIKLVRDSFTSATERHIQVGDGLEILIVTKDGVRKEFYELKRD chain 2: MDIILGIRVQDSVILASSKAVTRGISVLKDSDDKTRQLSPHTLMSFAGEAGDTVQFAEYIQANIQLYSIREDYELSPQAVSSFVRQELAKSIRSRRPYQVNVLIGGYDKKKNKPELYQIDYLGTKVELPYGAHGYSGFYTFSLLDHHYRPDMTTEEGLDLLKLCVQELEKRMPMDFKGVIVKIVDKDGIRQVDDFQAQ chain 3: SDPSSINGGIVVAMTGKDCVAIACDLRLGSQSLGVSNKFEKIFHYGHVFLGITGLATDVTTLNEMFRYKTNLYKLKEERAIEPETFTQLVSSSLYERRFGPYFVGPVVAGINSKSGKPFIAGFDLIGCIDEAKDFIVSGTASDQLFGMCESLYEPNLEPEDLFETISQALLNAADRDALSGWGAVVYIIKKDEVVKRYLKMRQD chain 4: TQQPIVTGTSVISMKYDNGVIIAADNLGSYGSLLRFNGVERLIPVGDNTVVGISGDISDMQHIERLLKDLVTENAYDNPLADAEEALEPSYIFEYLATVMYQRRSKMNPLWNAIIVAGVQSNGDQFLRYVNLLGVTYSSPTLATGFGAHMANPLLRKVVDRESDIPKTTVQVAEEAIVNAMRVLYYRDARSSRNFSLAIIDKNTGLTFKKNLQVENMKWDFAKDIKGYGTQKI chain 5: TTTLAFRFQGGIIVAVDSRATAGNWVASQTVKKVIEINPFLLGTMAGGAADCQFWETWLGSQCRLHELREKERISVAAASKILSNLVYQYKGAGLSMGTMICGYTRKEGPTIYYVDSDGTRLKGDIFCVGSGQTFAYGVLDSNYKWDLSVEDALYLGKRSILAAAHRDAYSGGSVNLYHVTEDGWIYHGNHDVGELFWKVKEEEGSFNNVIG chain 6: TSIMAVTFKDGVILGADSRTTTGAYIANRVTDKLTRVHDKIWCCRSGSAADTQAIADIVQYHLELYTSQYGTPSTETAASVFKELCYENKDNLTAGIIVAGYDDKNKGEVYTIPLGGSVHKLPYAIAGSGSTFIYGYCDKNFRENMSKEETVDFIKHSLSQAIKWDGSSGGVIRMVVLTAAGVERLIFYPDEYEQL chain 7: TTIVGVKFNNGVVIAADTRSTQGPIVADKNCAKLHRISPKIWCAGAGTAADTEAVTQLIGSNIELHSLYTSREPRVVSALQMLKQHLFKYQGHIGAYLIVAGVDPTGSHLFSIHAHGSTDVGYYLSLGSGSLAAMAVLESHWKQDLTKEEAIKLASDAIQAGIWNDLGSGSNVDVCVMEIGKDAEYLRNYLTPNVREEKQKSYKFPRGTTAVLKESIVNICDIQEEQVDITA	binds	binding result [2]: binds
PSMA2 subunit of the human 20S proteasome (natural protein, human (HEK293 cells), UniProt P25787 2-234, looked up, N-terminal acetylation) AERGYSFSLTTFSPSGKLVQIEYALAAVAGGAPSVGIKAANGVVLATEKKQKSILYDERSVHKVEPITKHIGLVYSGMGPDYRVLVHRARKLAQQYYLVYQEPIPTAQLVQRVASVMQEYTQSGGVRPFGVSLLICGWNEGRPYLFQSDPSGAYFAWKATAMGKNYVNGKTFLEKRYNEDLELEDAIHTAILTLKESFEGQMTEDNIEVGICNEAGFRRLTPTEVKDYLAAIA	–	binding result [3]: binds
β7 ring of the rat 20S proteasome (complex, rat (Rattus norvegicus), N-terminal acetylation | N-terminal acetylation) chain 1: RFSPYAFNGGTVLAIAGEDFSIVASDTRLSEGFSIHTRDSPKCYKLTDKTVIGCSGFHGDCLTLTKIIEARLKMYKHSNNKAMTTGAIAAMLSTILYSRRFFPYYVYNIIEGLDEEGKGAVYSFDPVGSYQRDSFKAGGSASAMLQPLLDNQVGFKNMQNVEHVPLTLDRAMRLVKDVFISAAERDVYTGDALRICIVTKEGIREETVPLRKD chain 2: EYLIGIQGPDYVLVASDRVAASNIVQMKDDHDKMFKMSEKILLLCVGEAGDTVQFAEYIQKNVQLYKMRNGYELSPTAAANFTRRNLADCLRSRTPYHVNLLLAGYDEHEGPALYYMDYLAALAKAPFAAHGYGAFLTLSILDRYYTPTISRERAVELLRKCLEELQKRFILNLPTFSVRVIDKDGIHNLENITFTKRSS chain 3: SVMSYNGGAVMAMKGKNCVAIAADRRFGIQAQMVTTDFQKIFPMGDRLYIGLAGLATDVQTVAQRLKFRLNLYELKEGRQIKPYTLMSMVANLLYEKRFGPYYTEPVIAGLDPKTFKPFICSLDLIGCPMVTDDFVVSGTCSEQMYGMCESLWEPNMDPEHLFETISQAMLNAVDRDAVSGMGVIVHIIEKDKITTRTLKARMD chain 4: TQNPMVTGTSVLGVKFDCGVVIAADMLGSYGSLARFRNISRIMRVNDSTMLGASGDYADFQYLKQVLGQMVIDEELFGDGHSYSPRAIHSWLTRAMYSRRSKMNPLWNTKVIGGYAGGESFLGYVDMLGVAYEAPSLATGYGAYLAQPLLREVLEKQPVLSQTEARELVERCMRVLYYRDARSYNRFQVATVTEKGVEIEGPLSAQTNWDIAHMISGFE chain 5: TTTLAFKFQHGVIVAADSRATAGPYIASQTVKKVIEINPYLLGTMAGGAADCSFWERLLARQCRIYELRNKERISVAAASKLLANMVYQYKGMGLSMGTMICGWDKRGPGLYYVDSEGNRISGTAFSVGSGSVYAFGVMDRGYSYDLQVEEAYDLARRAIYQATYRDAYSGGAVNLYHVREDGWIRVSSDNVADLHDKYTSSIP chain 6: TTIMAVQFDGGVVLGADSRTTTGSYIANRVTDKLTPIHDHIFCCRSGSAADTQAVADAVTYQLGFHSIELNEPPLVHTAASLFKEMCYRYREDLMAGIIIAGWDPQEGGQVYSVPMGGMMVRQSFAIGGSGSSYIYGYVDATYREGMTKDECLQFTANALALAMERDGSSGGVIRLAAIQQSGVERQVLLGDQIPKVTISTLPPP chain 7: TTIAGVVYKDGIVLGADTRATEGMVVADKNCSKIHFISPNIYCCGAGTAADTDMTTQLISSNLELHSLTTGRLPRVVTANRMLKQMLFRYQGYIGAALVLGGVDVTGPHLYSIYPHGSTDKLPYVTMGSGSLAAMAVFEDKFRPDMEEEEAKKLVSEAIAAGIFNDLGSGSNIDLCVISKSKLDFLRPYSVPNKKGTRFGRYRCEKGTTAVLTEKVTPLELEVLEEIVQTMDTS	binds	–
PSMA2 subunit of the rat 20S proteasome (natural protein, rat (Rattus norvegicus), UniProt P17220 2-234, looked up, N-terminal acetylation) AERGYSFSLTTFSPSGKLVQIEYALAAVAGGAPSVGIKAANGVVLATEKKQKSILYDERSVHKVEPITKHIGLVYSGMGPDYRVLVHRARKLAQQYYLVYQEPIPTAQLVQRVASVMQEYTQSGGVRPFGVSLLICGWNEGRPYLFQSDPSGAYFAWKATAMGKNYVNGKTFLEKRYNEDLELEDAIHTAILTLKESFEGQMTEDNIEVGICNEAGFRRLTPTEVRDYLAAIA	–	binding result [4]: binds
β-subunit of the archaeal (Thermoplasma acidophilum) 20S proteasome (natural protein, UniProt P28061 9-211, looked up) TTTVGITLKDAVIMATERRVTMENFIMHKNGKKLFQIDTYTGMTIAGLVGDAQVLVRYMKAELELYRLQRRVNMPIEAVATLLSNMLNQVKYMPYMVQLLVGGIDTAPHVFSIDAAGGSVEDIYASTGSGSPFVYGVLESQYSEKMTVDEGVDLVIRAISAAKQRDSASGGMIDVAVITRKDGYVQLPTDQIESRIRKLGLIL	binds	binding result [5]: binds
B1	binds	–
